Consider 102 substances from the supplement of paper PMC12042874.

± gives the uncertainty stated by the source.

The data set can be described thus: amyloid nucleation score (Sup35N fusion, yeast selection) (log enrichment); library NNK2; higher = more nucleation; inactive = no reads after selection. The gist of the method: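 Nucleation score: DiMSum log enrichment of output over input reads, centred on the mode score of non-aggregating sequences. Only sequences with at least 100 input reads were kept. Reads came from Illumina sequencing of plasmid inserts before and after 7 days of growth at 30°C without adenine and uracil, in psi-negative yeast expressing Sup35N fused to peptides of 20 random codons after 24 hours of induction with 100 μM copper sulfate.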
The substance QGNSETGGNMCYDASCWLYG yielded an amyloid nucleation score of -0.064 ± 0.45.

RFVYMLVCIELVG yielded an amyloid nucleation score of -0.953 ± 0.78.

Take GLWVSHEVCIGCVF: the amyloid nucleation score result is “inactive”.

RVSTVFSLKTRRCEFLFQCV yielded an amyloid nucleation score of 0.24 ± 0.35.

As for HEQLW, the amyloid nucleation score was -0.243 ± 0.48.

CALFLFRKVLVLIT displayed an amyloid nucleation score of -1.48 ± 0.55.

Consider YMRGITHSAGCSSLAINVEH, for which the amyloid nucleation score was -1.23 ± 1.1.

LFSALFGRW showed an amyloid nucleation score of 4.26 ± 0.05.

For SDNTLCLTGDSAYN, the amyloid nucleation score was 0.307 ± 0.2.

In turn, VFQIHYMVGNVVCTWSWPNV yielded an amyloid nucleation score of 4.27 ± 0.056.

RKSYGRSWSSGNLYYNLHGD: the amyloid nucleation score is -1.18 ± 1.1.

Regarding SRYSSV, the amyloid nucleation score turned out to be 0.172 ± 0.65.

In turn, GHLLASKLLQSSYETCS displayed an amyloid nucleation score of 0.286 ± 0.62.

AVDFKQDNHKYVNSLTDMGA had an amyloid nucleation score of 0.034 ± 1.1.

LYPYAQFCVSVRRLHRLVSR came in with an amyloid nucleation score of 0.306 ± 0.28.

Substance FKFTWRTFESNNLMVRVWLL gave an amyloid nucleation score of -1.29 ± 0.55.

The substance VPWLNGRVVASRKDKTRSSR registered an amyloid nucleation score of 0.009 ± 0.76.

In the case of MSYQSINKKGFVVFGRKLLA, the amyloid nucleation score was -0.512 ± 0.39.

With GINWSAVYR, the amyloid nucleation score is -0.083 ± 0.24.

For YSKNWYWCTDYARANTLYHG, the amyloid nucleation score was -1.14 ± 1.1.

As to NKLLHHFILGAEESLLEIMY, the amyloid nucleation score entry was “inactive”.

In the case of WNVFKLSGSSYV, the amyloid nucleation score is -0.483 ± 0.31.

In the case of FNLTFNHF, the amyloid nucleation score worked out at 6.041 ± 0.045.

Regarding MWSLRYTVGLEDCG, the amyloid nucleation score amounted to 0.897 ± 0.34.

PSTIGRMVVLACWSDICRRG gave an amyloid nucleation score of 8.88 ± 0.059.

The substance FHYRFFVVMIRGCSFWHFQL yielded an amyloid nucleation score of -1.57 ± 0.49.

SIFRWKREKAVGLYPLHQVA showed an amyloid nucleation score of -0.094 ± 0.76.

On to VDITRWIDVMVYF, for which the amyloid nucleation score was -0.19 ± 0.62.

In the case of ICFYLLHDRIHHSWD, the amyloid nucleation score came out at 5.3 ± 0.096.

For VFRYAGRCRNGIVGLYGATM, the amyloid nucleation score was 4.677 ± 0.046.

Consider GLSAIPFTDG, for which the amyloid nucleation score is -0.722 ± 0.45.

Turning to WMLNLDLLIFASLRGVVEGD, the amyloid nucleation score result is “inactive”.

In the case of NQFVVMDQVLVMWGCFDLTR, the amyloid nucleation score was found to be 0.417 ± 0.46.

Consider FVYESIFLHRMSYNPIRWWV, for which the amyloid nucleation score was determined as 0.112 ± 1.1.

The substance GGWNLDYVMRVYTRRLCNAS yielded an amyloid nucleation score of 1.17 ± 0.41.

For YLQVWYTREFYIFRGKMDLL, the amyloid nucleation score entry was “inactive”.

As for TETNRDWRLGDDW, the amyloid nucleation score was 5.293 ± 0.047.

IWFRIQVCEIPSLIQTIVRR displayed an amyloid nucleation score of -0.064 ± 0.32.

STSRFTMQQRRKLYKSFCWR returned an amyloid nucleation score of -0.665 ± 1.1.

Take ASIGY: the amyloid nucleation score is 0.663 ± 0.22.

As for TIFIGVRVPS, the amyloid nucleation score is -0.224 ± 0.63.

Take AGSQVVVMVIGVSTWAVVDG: the amyloid nucleation score was found to be 3.01 ± 0.14.

For the substance WCIKANSMSRNVYVEEMGER, the amyloid nucleation score is -0.143 ± 0.24.

For the substance LKLFNGVRPKNGM, the amyloid nucleation score is -1.6 ± 0.75.

SYGNEFMM returned an amyloid nucleation score of 0.363 ± 0.57.

FGSIHGGRDEGPFLLGSSNV yielded an amyloid nucleation score of -0.675 ± 1.1.

For the substance FYKGWMVLALNDNSVVSINV, the amyloid nucleation score stood at 3.42 ± 0.085.

In turn, IVISWIPDNPNQMDALCRRY gave an amyloid nucleation score of 0.912 ± 0.34.

In turn, AILRRVKIQLPRIPPEYCGW gave an amyloid nucleation score of 0.884 ± 0.49.

In the case of VHSGLYAKCVRLYMQNFPHL, the amyloid nucleation score amounted to 0.192 ± 0.79.

Substance VFTSFVG came in with an amyloid nucleation score of 0.536 ± 0.46.

With NFGGIKKLYNTMRSYWLGTR, the amyloid nucleation score was -1.22 ± 0.45.

With SLFRVKGAVLEVLVPRMLLY, the amyloid nucleation score was 0.51 ± 0.41.

As to LRLLISV, the amyloid nucleation score worked out at 0.306 ± 0.25.

In turn, LRGRRRTVLPANGWCSLTAL displayed an amyloid nucleation score of 0.453 ± 0.28.

Turning to MTALSTVDWRYSAHFSS, the amyloid nucleation score entry was “inactive”.

On to AARVIGWAFVDWFCLSKG, for which the amyloid nucleation score result is “inactive”.

As to KYTVSLVDLGCFQSKGCDST, the amyloid nucleation score entry was “inactive”.

On to RESWLAGMSVYWANSGMSFA, for which the amyloid nucleation score was -0.487 ± 0.36.

As to PCITLAFPVNKSRF, the amyloid nucleation score was -0.363 ± 1.1.

As to LLPCLPLPFMSPITARATHI, the amyloid nucleation score was 3.24 ± 0.058.

With IWPMEWNCTMDYRSPWMRHR, the amyloid nucleation score was 2.06 ± 0.07.

In turn, KSVTVGADHNVDVGVAEMIR returned an amyloid nucleation score of 1.79 ± 0.32.

As to WHSDSQTRRSSLSLLVCQID, the amyloid nucleation score is 0.935 ± 0.66.

Regarding QCFDFTD, the amyloid nucleation score turned out to be 1.1 ± 0.38.

For the substance QYLLIIMFRYYLYCGVQRNY, the amyloid nucleation score was -0.121 ± 1.1.

For AGLIRCLLRGTCNRNFFSLY, the amyloid nucleation score result is “inactive”.

Regarding ERDSGPEYIVCIQVVIYLGM, the amyloid nucleation score stood at 3.06 ± 0.052.

Regarding RVFSLDWVIERMSVEFHSWG, the amyloid nucleation score entry is “inactive”.

QSLHRGR came in with an amyloid nucleation score of -0.311 ± 1.1.

Regarding NARLRYGSL, the amyloid nucleation score was -0.101 ± 0.37.

In turn, VLNRLERASSVREQGIIRGR registered an amyloid nucleation score of 0.252 ± 0.29.

Consider MNHWGMLRLGSWYRITYA, for which the amyloid nucleation score was -0.367 ± 0.38.

For the substance TASMGVVVSDENWE, the amyloid nucleation score worked out at 0.633 ± 0.14.

Substance QVGFPWFGRQVKDYLLLYKP registered an amyloid nucleation score of 0.22 ± 0.4.

Take CISTLIGTRPTAYLLLLRDI: the amyloid nucleation score entry was “inactive”.

QEYLLLVAAGKHVNVDKTYL: the amyloid nucleation score worked out at 0.594 ± 0.81.

Substance VCGVNV registered an amyloid nucleation score of -0.363 ± 1.1.

On to CQISGCYWV, for which the amyloid nucleation score came to 5.28 ± 0.074.

In the case of KRVFKLSESTTRVIMWGRYS, the amyloid nucleation score entry is “inactive”.

In turn, SVSNVPRGWSLTRGLSTVPG had an amyloid nucleation score of 0.828 ± 0.22.

Turning to SINLLLGAGVVGGGLVLYGS, the amyloid nucleation score came to 2.45 ± 0.14.

With EFMLSVRKVVPRIYGNNPRV, the amyloid nucleation score turned out to be 2.78 ± 0.084.

Regarding PIMCKGNLTDFTFYCFCKFD, the amyloid nucleation score came to 6.6 ± 0.067.

In turn, KCVRTTVLHNRRVPDGLTMP showed an amyloid nucleation score of 0.678 ± 0.33.

Substance FRVFCMHSED gave an amyloid nucleation score of 2.47 ± 0.12.

In turn, TSLVLCYLTIELSVLISSGN returned an amyloid nucleation score of 0.221 ± 0.36.

In turn, VPTLCLVLDRLLDSNR came in with an amyloid nucleation score of -1.39 ± 0.62.

LKLYPGIFIICVRTMDFVFW: the amyloid nucleation score entry is “inactive”.

The substance DRGRSNWFRMMWIDGEHYSE showed an amyloid nucleation score of -0.492 ± 0.61.

On to TSDLNNSSSMKAYSNEHSGC, for which the amyloid nucleation score was 0.411 ± 0.4.

The substance REHSYLSIFLWMCAFVTNVE yielded an amyloid nucleation score of -0.98 ± 1.1.

In turn, CNVTIIYVPYGEWTTFYLRL returned an amyloid nucleation score of 7.45 ± 0.082.

As to VNVDWCLLSVLVFNLETNPR, the amyloid nucleation score came to 6.699 ± 0.032.

Substance YSGKCMEDVRGQMVGGLELV displayed an amyloid nucleation score of 0.405 ± 0.22.

Substance RPKSKADYGWC yielded an amyloid nucleation score of -0.119 ± 0.45.

With GVAMNNCGIMDSREHGFGIR, the amyloid nucleation score came out at 0.436 ± 0.36.

Turning to ERLRSLKDNIMNFCKSRLGL, the amyloid nucleation score entry is “inactive”.

The substance CYMYDSVTNWTYWLSG had an amyloid nucleation score of -0.679 ± 0.26.

The substance LFDSLPDYITTYYNNDAQQG registered an amyloid nucleation score of -1.85 ± 1.

In turn, TRPCMFFRIELISLSTVLAR had an amyloid nucleation score of 0.552 ± 0.46.

The substance LGFHWIRNGGGLVTVNLVCV showed an amyloid nucleation score of 0.747 ± 0.27.
